These results are taken from publication PMC11343739.

A short description of data set [1]: anti-Flag WB of cell fractions. The following applies: glycan lost; control: Flag-EP300-WT.
The nature of data set [2]: nuclear/cytoplasmic fractionation WB and IF. The following applies: glycan lost; control: Flag-EP300-WT.
The nature of data set [3]: CHX chase, WB, 786-O cells. As to conditions: glycan lost; control: Flag-EP300-WT.
Data set [4] is described as follows: WB of endogenous EP300, 786-O and Caki-1. As to conditions: glycan lost; control: untreated.

Turning to EP300: S900A, the expression_or_secretion result in data set [1] is on record as “changes”. The localisation_or_trafficking entry in data set [2] is listed as “no change”. Besides, in data set [3], the degradation_or_half_life result is “decreases”.

As for EP300: OSMI-1, in data set [4], the expression_or_secretion result is “decreases”.
